The Human Domainome abundance scans (Beltran et al. 2025)
± gives the uncertainty stated by the source.

B1: Retinoic acid receptor beta, residues 85 to 161; numbered along this chain, P10826 (parent)
chain: YKPCFVCQDKSSGYHYGVSACEGCKGFFRRSIQKNMIYTCHRDKNCVINKVTRNRCQYCRLQKCFEVGMSKESVRND

Variants of: B1
Experiment: abundance fitness (aPCA) (normalised: wild type 0, dead -1); higher = more abundant; growth selection in yeast, the domain comes from the species named
Details: Homo sapiens

Abundance fitness, by site and new letter:
E22: M -0.224 ± 0.066; L -0.186 ± 0.044; T -0.126 ± 0.063; A -0.209 ± 0.05; K -0.205 ± 0.06; I -0.267 ± 0.11; S -0.239 ± 0.065; N -0.317 ± 0.11; W -0.368 ± 0.074; G -0.325 ± 0.049; P -0.324 ± 0.078; D -0.025 ± 0.071; R -0.663 ± 0.072; Q -0.316 ± 0.086; V -0.203 ± 0.044
C21: T -0.98 ± 0.27; K -0.91 ± 0.2; Q -0.93 ± 0.27; I -0.89 ± 0.34; W -0.839 ± 0.17; S -0.933 ± 0.15; V -0.881 ± 0.11; R -0.666 ± 0.072; G -0.76 ± 0.073; L -0.752 ± 0.1; A -0.809 ± 0.12; F -1.14 ± 0.48; N -0.501 ± 0.2; Y -0.885 ± 0.27; D -0.904 ± 0.3; M -0.751 ± 0.17; E -0.575 ± 0.12
Y14: W 0.061 ± 0.087; C -0.119 ± 0.088; T 0.042 ± 0.053; R -0.203 ± 0.057; S -0.044 ± 0.051; K 0.012 ± 0.09; E -0.038 ± 0.074; I 0.054 ± 0.065; H 0.113 ± 0.07; V 0.092 ± 0.048; P 0.125 ± 0.057; N -0.041 ± 0.07; A 0.11 ± 0.05; L 0.006 ± 0.045; G -0.244 ± 0.069
R29: Y -0.339 ± 0.17; V 0.084 ± 0.044; P -0.77 ± 0.29; L 0.026 ± 0.045; A 0.072 ± 0.043; I 0.069 ± 0.066; Q 0.091 ± 0.06; W 0.011 ± 0.045; H 0.162 ± 0.2; D -0.079 ± 0.1; E 0.167 ± 0.048; K -0.092 ± 0.072; T 0.211 ± 0.064; N 0.145 ± 0.15; S 0.098 ± 0.049
S31: A -0.121 ± 0.041
S11: P -0.088 ± 0.086; C -0.414 ± 0.11; Q -0.33 ± 0.091; L -0.263 ± 0.058; F -0.377 ± 0.14; K -0.242 ± 0.088; T -0.254 ± 0.1; V -0.221 ± 0.05; D 0 ± 0.073; Y -0.407 ± 0.21; H -0.525 ± 0.22; A -0.21 ± 0.058; I -0.27 ± 0.16; N 0.173 ± 0.08; G -0.165 ± 0.044
Y16: A -0.062 ± 0.066; E 0.29 ± 0.077; P -0.115 ± 0.084; C -0.134 ± 0.1; V -0.062 ± 0.07; S -0.072 ± 0.06; T -0.069 ± 0.058; L -0.045 ± 0.056; I -0.178 ± 0.074; K -0.295 ± 0.12; N -0.08 ± 0.068; F 0.035 ± 0.061; G 0.025 ± 0.06; W -0.126 ± 0.14; D 0.128 ± 0.065; Q -0.027 ± 0.091; M -0.15 ± 0.098
C24: L -0.624 ± 0.11; E -0.842 ± 0.12; M -0.817 ± 0.2; N -1.07 ± 0.38; P -1.06 ± 0.42; R -0.793 ± 0.094; S -0.793 ± 0.12; F -0.577 ± 0.14; W -0.955 ± 0.16; K -0.89 ± 0.18; D -0.47 ± 0.18; H -0.896 ± 0.38; T -0.736 ± 0.22; A -1.03 ± 0.15; Y -0.309 ± 0.14
V18: S -0.165 ± 0.062; Q -0.04 ± 0.065; H -0.433 ± 0.26; C -0.106 ± 0.08; P -0.365 ± 0.11; I 0.012 ± 0.097; Y -0.29 ± 0.11; A 0.088 ± 0.044; R -0.76 ± 0.1; L -0.353 ± 0.059; G -0.22 ± 0.043; E -0.421 ± 0.075; M -0.209 ± 0.18; D -0.637 ± 0.21; F -0.108 ± 0.12; T 0.103 ± 0.17
F27: D -0.698 ± 0.17; Q -0.97 ± 0.21; C -0.703 ± 0.29; P -0.888 ± 0.22; E -0.822 ± 0.14; I -0.724 ± 0.32; A -0.748 ± 0.095; G -0.715 ± 0.069; M -0.454 ± 0.1; L -0.886 ± 0.12; S -0.773 ± 0.12; Y -0.57 ± 0.23
G17: P -0.164 ± 0.11; H -0.292 ± 0.13; W -0.603 ± 0.11; N -0.091 ± 0.1; S -0.219 ± 0.052; K -0.138 ± 0.061; Y 0.101 ± 0.21; Q -0.311 ± 0.073; T -0.242 ± 0.065; L -0.368 ± 0.058; V -0.481 ± 0.064; C -0.24 ± 0.1; R -0.288 ± 0.05; M -0.254 ± 0.071; E -0.08 ± 0.057; A -0.278 ± 0.054; D -0.246 ± 0.081
G13: N -0.145 ± 0.12; K -0.292 ± 0.2; L -0.457 ± 0.093; Y -0.206 ± 0.088; M -0.067 ± 0.1; C -0.334 ± 0.11; T -0.053 ± 0.068; Q -0.503 ± 0.2; V -0.192 ± 0.081; F -0.349 ± 0.14; A -0.325 ± 0.1; S -0.055 ± 0.059; R -0.289 ± 0.11; D 0.082 ± 0.081; H -0.265 ± 0.15; E -0.068 ± 0.12; I -0.279 ± 0.12; W -0.673 ± 0.39
K25: D 0.031 ± 0.062; T 0.048 ± 0.057; N 0.133 ± 0.069; C 0.02 ± 0.06; W 0.008 ± 0.053; Y -0.047 ± 0.083; A 0.205 ± 0.04; R -0.069 ± 0.04; G -0.017 ± 0.038; S 0.099 ± 0.042; I 0.094 ± 0.08; L 0.028 ± 0.044; V 0.183 ± 0.038; F 0.133 ± 0.073; Q 0.122 ± 0.056; H -0.223 ± 0.094; E 0.036 ± 0.043
G26: N 0.246 ± 0.12; T -0.024 ± 0.057; D 0.162 ± 0.078; I -0.078 ± 0.11; Q -0.11 ± 0.073; H -0.109 ± 0.12; S -0.254 ± 0.066; R -0.481 ± 0.052; V -0.121 ± 0.042; F -0.193 ± 0.14; A -0.021 ± 0.045; K -0.49 ± 0.1; Y -0.467 ± 0.22; L -0.265 ± 0.049; C -0.107 ± 0.069; W -0.862 ± 0.1; M -0.396 ± 0.076; E 0.107 ± 0.045
S12: K -0.207 ± 0.076; R -0.32 ± 0.05; D 0.16 ± 0.062; N 0.023 ± 0.084; E -0.041 ± 0.044; I -0.096 ± 0.14; W -0.106 ± 0.057; M -0.102 ± 0.076; A 0.057 ± 0.045; T 0.067 ± 0.058; L -0.216 ± 0.059; H -0.034 ± 0.17; G -0.242 ± 0.038; F -0.205 ± 0.12; C 0.168 ± 0.058; Y -0.364 ± 0.14; P -0.227 ± 0.11; V 0.011 ± 0.04
G23: T -0.008 ± 0.053; H -0.114 ± 0.12; P 0.072 ± 0.061; D 0.228 ± 0.067; R -0.395 ± 0.049; V -0.149 ± 0.043; F -0.304 ± 0.092; N -0.063 ± 0.11; C 0.108 ± 0.056; A 0.016 ± 0.042; W -0.138 ± 0.045; M -0.227 ± 0.067; K -0.288 ± 0.07; Q 0.057 ± 0.056; S 0.114 ± 0.043; I -0.282 ± 0.14; E 0.231 ± 0.04; Y -0.452 ± 0.11
S19: K -0.21 ± 0.078; D -0.285 ± 0.098; A 0.011 ± 0.044; T 0.02 ± 0.052; P -0.045 ± 0.077; W 0.024 ± 0.044; V 0.131 ± 0.04; M -0.003 ± 0.056; I 0.066 ± 0.071; F -0.09 ± 0.1; H -0.032 ± 0.092; C -0.088 ± 0.075; N -0.095 ± 0.092; E 0.017 ± 0.051; Q 0.049 ± 0.062; Y -0.048 ± 0.076; L -0.046 ± 0.05; R -0.121 ± 0.041
A20: R -0.785 ± 0.083; M -0.228 ± 0.068; T -0.065 ± 0.063; I 0.055 ± 0.093; Y -0.594 ± 0.38; E -0.66 ± 0.1; V -0.07 ± 0.042; P -0.724 ± 0.2; L -0.112 ± 0.049; C 0.064 ± 0.064; W -0.672 ± 0.092; Q -0.355 ± 0.082; F -0.077 ± 0.11; K -1.08 ± 0.24; G -0.614 ± 0.06; N -0.491 ± 0.2; S -0.07 ± 0.052
H15: C 0.016 ± 0.1; G -0.25 ± 0.12; A 0.033 ± 0.054; F -0.111 ± 0.063; K -0.276 ± 0.095; V -0.091 ± 0.061; I -0.348 ± 0.096; W -0.203 ± 0.2; T -0.046 ± 0.058; L -0.097 ± 0.051; Y 0.05 ± 0.073; N -0.015 ± 0.093; D 0.03 ± 0.061; E -0.129 ± 0.085; M -0.006 ± 0.076
K10: S 0.165 ± 0.05; P -0.03 ± 0.095; R 0.034 ± 0.04; Y 0.115 ± 0.069; M 0.078 ± 0.06; L 0.043 ± 0.045; V 0.007 ± 0.042; W -0.042 ± 0.056; I 0.154 ± 0.078; T 0.078 ± 0.054; N 0.146 ± 0.085
F28: P -1.06 ± 0.42; M -0.47 ± 0.11; N -0.847 ± 0.33; I -0.453 ± 0.22; L -0.588 ± 0.079; E -0.983 ± 0.17; Q -0.807 ± 0.19; W -0.123 ± 0.05; H -0.338 ± 0.17; G -0.82 ± 0.078; K -0.9 ± 0.19; A -0.534 ± 0.078; V -0.688 ± 0.08; T -0.604 ± 0.11; Y -0.439 ± 0.12; C -0.895 ± 0.2
R30: C -0.694 ± 0.24; H -0.172 ± 0.2; K 0.152 ± 0.052; W -0.647 ± 0.11; Q -0.311 ± 0.1; L -1.02 ± 0.16; E 0.142 ± 0.049; T -0.707 ± 0.14; S -0.644 ± 0.095; A -0.935 ± 0.14; G -0.702 ± 0.074; V -1.02 ± 0.14; D 0.234 ± 0.072
